Assay: yeast display, Sf9 membrane polyspecificity reagent, FACS + sequencing; frameworks hold sequencing errors
Summary of the method: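 A nanobody's polyreactivity label depends on the gate it was sorted from. Yeast display cells were stained with 10% biotinylated, detergent-solubilized Sf9 membrane reagent for 1 hour at 4 °C, enriched on streptavidin microbeads and sorted by FACS. The low and high (top ~1%) gates were set on anti-HA fluorescence for expression and streptavidin fluorescence for reagent binding.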

Row | Sequence | polyreactivity (PSR sort gate)
1 | QVQLVESGGVLVQAGGSLRLSCAATGYIFHLYGMGWYRQAPGKERELVARITYRRGSTYYADSVKGRFTISRDNAKNTVYLQMNSLKPEDTAVYYCAKRRGYGYNYWGQGTQVTVSS | high polyreactivity
2 | QVQLVESGGGLVQAGGSIRLSCAPSGSPNVTYDMGWYRQAPGKESELVASISRGGSTKYADSVKGRFTISRDNAKNTVFLQMNSLKPEDTAVFYGAAKAKNYRLGPYDYWGQGTQVTVSS | low polyreactivity
3 | QVQLVESGGGLVQAGGSLRLNCAASGSTFGYYAMGWYRQAPGKQRELVAAITSGASTNYADSVKGRFTISRDNAKNTVYLLMNSLKPEDTAVYYCSAGFQTRTPLNEFDYWGQGTQVTVSS | low polyreactivity
4 | QVHLVESGGGLVQAGGSLRLSCAASGSTFYLYAMGWYRQATGKERELDASISRSGITTYSDSVKGRFTITRDNAKNNVYLQLNSRNPEDTADYYCAVRYYSASYWYGYDYWGLGTQVTVSS | high polyreactivity
5 | QVQLVESGGGLVQAGGSLRLSCAASGSTVKYAMGWYRQAPGKDRELVASIRRSGGSTYYADSVKGRFTISRDNAMNTVYLQMNRLKPEDTAVYYCNARFPYNWRYDYWGQGTQVTVSS | high polyreactivity
6 | QVQLVESGGGLVQAGGSLSLTCDAYGRTIYKYGMGWYREAPGKERDLVARINSNGGSTYYADSVKGRFTISRDNAKNTVYLELISLKPEDTAVYYCARSYVRSYGYYYWGQGTQVTVSS | low polyreactivity
7 | QVQLVESVGGLVQAGGSLRLSCPASGFTFKYYAMGWYRQAPGKEREFVAAISRSGGSTTYADSVKGRFTISRDNAKNTVYLQMNSLKPEDTAVYYCAVAYYTAYTPRDGEYWGQGTQVTVSS | high polyreactivity
8 | QVQLVESGGCLVQAGGSLRLSCAASGSTLIEYAMGWYRQAPGKESELVARISKSGDSTYYADSVKGRFTISRDNAKNTVYLQMISLKPEDTAVYYCAKYHRDGFYRSYLRTFDFGYWGQGTQVTVSS | low polyreactivity
9 | QVQLVESGGGLVQAGGSLRLSCAASGFTFVTNAMGWYRQAPGKERELVAAISSSGARTYYADSVKGRFTISRDNAKNTVYLQMNSLKPEDTAVYYCAVYYYDFTSTEYGYWGQGTQVTVSS | high polyreactivity
10 | QVQLVESGGGLVQAGGSLRLSCAASGSTFYNYAMGWYRQAPGKERELVAAISIGGSTYYADSVKGRFTISRDNAKNTVYLQMNSLKPEDTAVYYCAADDGDFYPIDDYWGQGTQVTVSS | low polyreactivity
11 | QVQLVESGGGLVQAGGSLRLSCAASGRIFWSYAMGWYRPAPGKERELVAAISYSGGGTYYADSVKGRFTISRDNAKNTVYLQMNSLKPEDTAVYYCAAETYYAPYDYWGQGTQVTVSS | high polyreactivity
12 | QVQLVESGGGLVQAGGSLRLSCAASGRNFALNAMGWYRQAPGKERELLATIRWRGGSTYYADSVKGRFTISRDNAKKTVYLQMNSLKPEDTAVYYCATGPRPYPYDYCGQGTQVTVSS | high polyreactivity
13 | QVQLEESGGGLVQAGGSLRLSCAASGSTFVPYAMGWYRQAPGKERELVASISWRGGSTSYADSVKGRFTISRDNAKNTVYLQMNSLKPEDTAVYYCAADLGLDYDDAQTRVVVTSEDYWGQGTQVTVSS | high polyreactivity
14 | QVQLVESGGGLVQAGGSLRLSCAASGSIFINYAMGWYRQAPGKERELVAAISKNGGNTYYADSVKGRFTISRDNAKNTVYLQMNSLKPEDTAVYYCNYDYWGQGTQVTVSS | low polyreactivity
15 | QVQLEESGGGLVQAGGSLRLTCAASGRTFSSYTMGWSRQAPGKERELVASITNNGGSTYYADSVKGRFTISRDNAKNTVYLQMNSLKPEDTAVYYCNKDPWYVFHPRGLFLFDYWGQGTQVTVSS | low polyreactivity
16 | QVQLVESGGGLVQAGGSLRLSCAASGSIFSINTMGWYRQAPGKERELVAAISRTGGSTYYADSVKGRFTISRDNAKNTVYLQMNSLKPEDTAVYYCAARKYADGRIFYYWGQGTQVTVSS | high polyreactivity
17 | QVQLVESGGGLVQAGGSLRLSCAASGRIFRYYAMGWYRQAPGKERELVAAITRGGSTNYADSVKGRFTISRDNAKNTVYLQMNSLKPEDTAVYYCAVRGGYTWPTYNYWGQGTQVTVSS | high polyreactivity

Source: the nanobody polyreactivity screen of Harvey et al. (2022)
